For one substance, IC50, IL-17A-dependent IL-6 production, HT1080 cells and IC50, dual IL-17A/TNFα-dependent IL-6 production, HT1080 cells results are on record in US20210332120A1.

The assay addresses human IL-17A (human) (UniProt Q16552). Kind of assay: cell-based or functional assay.

Chain of human IL-17A (human) (Q16552 20-155 limits assumed): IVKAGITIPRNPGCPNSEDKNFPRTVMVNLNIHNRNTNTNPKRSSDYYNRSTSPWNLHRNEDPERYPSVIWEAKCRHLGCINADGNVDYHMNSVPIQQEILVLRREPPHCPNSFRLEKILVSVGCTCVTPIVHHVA

Turning to “BCD-085 anti-IL-17A monospecific antibody (BIOCAD)”, the IC50, IL-17A-dependent IL-6 production, HT1080 cells amounted to 9.2 ng/mL and the IC50, dual IL-17A/TNFα-dependent IL-6 production, HT1080 cells was 0.025 nM.
